This is an account of results in publication PMC2991499.

Numbering of substitutions follows the chain as printed.

What all share (assay): EMSA
Data set [1] addresses T1, RB69 DNA polymerase gp43 PolY567A Exo+ (bacteriophage RB69, UniProt Q38087 1-903, Y567A).
T1 sequence: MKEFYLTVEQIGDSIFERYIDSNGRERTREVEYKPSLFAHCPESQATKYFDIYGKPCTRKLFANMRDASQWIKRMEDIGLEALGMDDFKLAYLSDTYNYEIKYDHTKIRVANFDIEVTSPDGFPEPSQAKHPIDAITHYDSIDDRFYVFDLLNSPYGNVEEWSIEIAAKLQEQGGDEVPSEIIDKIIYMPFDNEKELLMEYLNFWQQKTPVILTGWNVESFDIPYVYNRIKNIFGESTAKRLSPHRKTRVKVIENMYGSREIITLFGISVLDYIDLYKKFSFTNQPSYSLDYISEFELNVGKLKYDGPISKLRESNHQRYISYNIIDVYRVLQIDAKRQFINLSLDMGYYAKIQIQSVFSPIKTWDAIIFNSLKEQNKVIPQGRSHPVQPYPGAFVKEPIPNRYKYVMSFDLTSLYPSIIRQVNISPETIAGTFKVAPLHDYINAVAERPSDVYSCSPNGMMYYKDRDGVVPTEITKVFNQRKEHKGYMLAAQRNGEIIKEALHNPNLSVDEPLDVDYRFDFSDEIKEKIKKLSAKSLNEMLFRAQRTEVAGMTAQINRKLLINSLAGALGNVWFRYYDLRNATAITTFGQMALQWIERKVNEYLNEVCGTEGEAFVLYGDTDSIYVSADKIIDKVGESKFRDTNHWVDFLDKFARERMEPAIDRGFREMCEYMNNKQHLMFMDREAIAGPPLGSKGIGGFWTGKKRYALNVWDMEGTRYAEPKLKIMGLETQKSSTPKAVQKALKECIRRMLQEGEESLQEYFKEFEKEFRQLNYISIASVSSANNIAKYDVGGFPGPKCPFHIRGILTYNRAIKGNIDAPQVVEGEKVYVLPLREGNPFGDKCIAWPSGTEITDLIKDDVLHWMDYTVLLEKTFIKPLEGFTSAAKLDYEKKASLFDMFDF

Data set [2] has as its target T2, RB69 DNA polymerase gp43 Pol+ Exo+ (wild type) (bacteriophage RB69, UniProt Q38087 1-903).
T2 sequence: T1 sequence with A567Y

The target in data set [3] is T3, RB69 DNA polymerase gp43 PolS565G Exo+ (bacteriophage RB69, UniProt Q38087 1-903, S565G).
T3 sequence: T1 sequence with S565G, A567Y

The target in data set [4] is T4, RB69 DNA polymerase gp43 PolS565G/Y567A Exo+ (bacteriophage RB69, UniProt Q38087 1-903, S565G;Y567A).
T4 sequence: T1 sequence with S565G

B1: mismatched dsDNA primer/template 20/30-mer, terminal T·G (dsDNA)
DNA 1: ATGTGCTGCAAGGCGATTAG
DNA 2: GTTACCCAACTTAATCGCCTTGCAGCACAT
For B1, the Kd in data set [1] came out at 25.7 ± 3.2 nM; in data set [2] it was 38.2 ± 4.3 nM; in data set [3], 132 ± 5.7 nM; in data set [4], 79.9 ± 4.8 nM.

B2: normal dsDNA primer/template 20/35-mer (dsDNA)
DNA 1: TTTGATGTATTATCAATTGT
DNA 2: TGCCTTCGTAATCTTACAATTGATAATACATCAAA
With B2, the Kd in data set [1] amounted to 13.2 ± 1.4 nM; in data set [2], 6.9 ± 2.1 nM; in data set [3] it was 38.9 ± 3.4 nM; in data set [4] it was 29.9 ± 1.9 nM.
